Test results reported in doi:10.1101/2025.11.05.686826.

Target: Prometheoarchaeum syntrophicum rubisco (Prometheoarchaeum syntrophicum)
Assay: SEC-SAXS

stoichiometry N: 2
Substance: Prometheoarchaeum syntrophicum rubisco (enzyme)
